From US7074761B1, “Peptides and production and use thereof” (Takeda Chemical Ind., Ltd., priority 1996, dated 2006) come the findings set out here.

Where a SMILES comes first, the peptide text is derived from it. Bridges are numbered along the chain shown (N, C = ends). Where no end group is shown, it is not given here.

Test [1] addresses T1, human SSTR5 (Homo sapiens, UniProt P35346).
T1 construct: expressed in transfected cells; host or cells: CHO(dhfr-) cells, clone SSTR5-32-4, plasmid pA-1-11-SSTR5 (vector pAKKO-111)
Kind of test: [125I]-somatostatin binding inhibition, SSTR5 CHO cell membrane fraction. The conditions noted are these: 25° C., 60 minutes. On the procedure: CHO(dhfr^−) cells (1×10^6 cells) were cultured on HAM F12 medium containing 10% fetal bovine serum in a dish with a diameter of 8 cm for 24 hours. Into these cells was introduced 10 μg of the human SSTR5 cDNA expression plasmid pA-1-11-SSTR5 obtained as described above in (2) by the calcium phosphate method (Cell Phect Transfection Kit; Pharmacia). At 24 hours after transfection, the medium was exchanged for DMEM containing 10% dialyzed fetal bovine serum, and cells forming a colony on this medium (namely DHFR^+ cells) were selected. Further, the cells selected were treated by the limiting dilution method for cloning from a single cell, and the cells thus cloned were measured for their somatostatin receptor protein expression ability by the binding assay described in Reference Example 1 (3). In this manner, a cell line with high somatostatin-binding activity. SSTR5-32-4, was selected. […]
(§1) The membrane fractions prepared in Reference Example 6 were each diluted to 3 μg/ml with assay buffer. […] After filtration, the radioactivity of [^125I]-somatostatin remaining on the filter paper was measured. For each test substance, the binding inhibition percentage (%) was calculated according to the formula: PBM=(B−NSB)/(B0−NSB)×100 (where PBM: percent maximum binding; B: radioactivity when the test sample is added; B0: maximum bound radioactivity; NSB: non-specifically bound radioactivity). […]

The target of test [2] is T2, human SSTR4 (Homo sapiens, UniProt P31391).
T2 construct: expressed in transfected cells; host or cells: CHO(dhfr-) cells, clone SSTR4-1-2, plasmid pA-1-11-SSTR4 (vector pAKKO-111)
T2 sequence (P31391 whole entry): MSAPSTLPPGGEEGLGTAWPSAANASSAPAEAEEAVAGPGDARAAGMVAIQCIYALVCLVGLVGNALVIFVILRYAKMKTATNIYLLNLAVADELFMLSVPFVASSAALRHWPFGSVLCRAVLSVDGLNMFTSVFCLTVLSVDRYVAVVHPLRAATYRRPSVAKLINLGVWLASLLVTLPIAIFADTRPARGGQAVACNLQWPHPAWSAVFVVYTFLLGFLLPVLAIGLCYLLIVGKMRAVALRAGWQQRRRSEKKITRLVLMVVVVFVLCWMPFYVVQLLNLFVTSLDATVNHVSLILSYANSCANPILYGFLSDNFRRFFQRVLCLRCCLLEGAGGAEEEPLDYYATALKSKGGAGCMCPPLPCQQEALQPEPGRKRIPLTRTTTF
Kind of test: [125I]-somatostatin binding inhibition, SSTR4 CHO cell membrane fraction. To be noted: 25° C., 60 minutes. On the procedure:
CHO(dhfr^−) cells (1×10^6 cells) were cultured on HAM F12 medium containing 10% fetal bovine serum in a dish with a diameter of 8 cm for 24 hours. Into these cells was introduced 10 μg of the human SSTR4 DNA expression plasmid pA-1-11-SSTR4 obtained as described above in (2) by the calcium phosphate method (Cell Phect Transfection Kit; Pharmacia). At 24 hours after transfection, the medium was exchanged for DMEM containing 10% dialyzed fetal bovine serum, and cells forming a colony on this medium (namely DHFR^+ cells) were selected. Further, the cells selected were treated by the limiting dilution method for cloning from a single cell, and the cells thus cloned were measured for their somatostatin receptor protein expression ability by the binding assay described in Reference Example 1 (3). In this manner, a cell line with high somatostatin-binding activity, SSTR4-1-2, was selected.
The human somatostatin receptor expressing CHO cell lines SSTR1-8-3, SSTR2-HS5-9, SSTR3-15-19, SSTR4-1-2 and SSTR5-32-4 (10^9 cells each) were respectively suspended in phosphate buffered physiological saline supplemented with 5 mM EDTA (PBS-EDTA) and centrifuged. To each cell pellet was added 10 ml of cell homogenation buffer (10 mM NaHCO3, 5 mM EDTA, pH=7.5), followed by homogenation with a Polytron homogenizer. The homogenate was centrifuged at 400×g for 15 minutes, and the supernatant obtained was further centrifuged at 100,000×g for 1 hour to give a membrane fraction as a precipitate. […]
as §1

For test [3], the target named is T3, human somatostatin receptor protein subtype 2 (SSTR2) (human, UniProt P30874 1-369).
T3 construct: whole, on cells; also called cell line SSTR2-HS5-9
T3 sequence (P30874 whole entry): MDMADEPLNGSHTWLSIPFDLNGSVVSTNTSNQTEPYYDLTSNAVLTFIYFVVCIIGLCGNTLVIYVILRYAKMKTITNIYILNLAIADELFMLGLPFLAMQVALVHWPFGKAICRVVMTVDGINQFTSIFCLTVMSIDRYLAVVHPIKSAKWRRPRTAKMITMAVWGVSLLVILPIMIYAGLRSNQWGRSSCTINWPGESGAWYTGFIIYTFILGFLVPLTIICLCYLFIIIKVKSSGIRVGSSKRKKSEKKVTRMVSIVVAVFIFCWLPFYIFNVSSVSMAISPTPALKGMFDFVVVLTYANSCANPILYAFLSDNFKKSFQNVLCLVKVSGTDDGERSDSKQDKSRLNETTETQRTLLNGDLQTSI
Kind of test: displacement of 200 pM [125I]-somatostatin from membrane fraction of CHO cells expressing the human receptor; filter binding, Hill plot. On the procedure:
(§2) The membrane fractions prepared in Reference Example 6 were each diluted to 3 µg/ml with assay buffer. […] After 60 minutes of reaction at 25° C., each reaction mixture was suction-filtered using a polyethyleneimine-treated Whatman glass filter (GF-B). […] For each test substance, the binding inhibition percentage (%) was calculated according to the formula:
(§3) PBM=(B-NSB)/(B_0-NSB)×100 (where PBM: percent maximum binding; B: radioactivity when the test sample is added; B_0: maximum bound radioactivity; NSB: non-specifically bound radioactivity).

Test [4] deals with T4, human somatostatin receptor protein subtype 1 (SSTR1) (human, UniProt P30872 1-391).
T4 construct: whole, on cells; also called cell line SSTR1-8-3
T4 sequence (P30872 whole entry): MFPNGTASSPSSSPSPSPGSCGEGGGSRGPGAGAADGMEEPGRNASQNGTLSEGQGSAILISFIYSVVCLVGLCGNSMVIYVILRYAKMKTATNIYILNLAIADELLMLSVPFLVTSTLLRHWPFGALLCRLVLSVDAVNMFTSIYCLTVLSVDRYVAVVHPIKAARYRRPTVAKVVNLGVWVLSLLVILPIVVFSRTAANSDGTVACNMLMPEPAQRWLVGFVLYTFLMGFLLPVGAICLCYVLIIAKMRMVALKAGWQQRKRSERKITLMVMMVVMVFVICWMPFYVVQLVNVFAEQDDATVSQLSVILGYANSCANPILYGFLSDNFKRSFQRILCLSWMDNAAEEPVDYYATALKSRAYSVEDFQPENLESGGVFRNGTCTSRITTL
The description is as above. On the procedure: as §2, §3

In test [5] the target is T5, human somatostatin receptor protein subtype 3 (SSTR3) (human, UniProt P32745 1-418).
T5 construct: whole, on cells; also called cell line SSTR3-15-19
T5 sequence (P32745 whole entry): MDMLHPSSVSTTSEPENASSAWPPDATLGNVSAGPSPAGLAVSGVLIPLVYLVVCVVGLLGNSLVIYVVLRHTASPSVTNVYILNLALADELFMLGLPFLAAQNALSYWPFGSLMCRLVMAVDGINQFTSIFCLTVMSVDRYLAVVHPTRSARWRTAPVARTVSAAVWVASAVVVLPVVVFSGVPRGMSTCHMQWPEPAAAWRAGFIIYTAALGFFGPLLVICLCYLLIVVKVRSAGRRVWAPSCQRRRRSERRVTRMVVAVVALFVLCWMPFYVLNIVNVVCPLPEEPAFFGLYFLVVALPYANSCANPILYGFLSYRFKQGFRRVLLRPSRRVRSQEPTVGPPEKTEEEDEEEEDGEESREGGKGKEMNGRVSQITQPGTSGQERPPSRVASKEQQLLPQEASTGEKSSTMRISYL
The test is described as above. Here is the method:
as §2, §3

Test [6] has as its target T3, human somatostatin receptor protein …. Kind of test: cell-based or functional assay.
For test [7], the target named is T6, human somatostatin receptor protein subtype 5 (SSTR5) (human, UniProt P35346 1-364). Kind of test: cell-based or functional assay.
T6 sequence (P35346 whole entry): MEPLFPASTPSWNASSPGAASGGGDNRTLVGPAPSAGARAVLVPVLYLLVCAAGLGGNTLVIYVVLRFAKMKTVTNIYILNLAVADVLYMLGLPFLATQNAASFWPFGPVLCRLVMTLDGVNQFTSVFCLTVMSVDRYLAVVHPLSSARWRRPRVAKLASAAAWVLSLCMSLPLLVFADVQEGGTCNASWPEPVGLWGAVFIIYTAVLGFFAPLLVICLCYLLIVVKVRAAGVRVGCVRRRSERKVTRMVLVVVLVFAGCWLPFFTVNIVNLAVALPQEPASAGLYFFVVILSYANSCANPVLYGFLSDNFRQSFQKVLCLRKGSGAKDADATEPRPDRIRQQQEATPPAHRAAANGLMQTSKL
Test [8] concerns the target T5, human somatostatin receptor protein …. Kind of test: cell-based or functional assay.
The target of test [9] is human somatostatin receptor protein subtype 4 (SSTR4) (human, UniProt P31391 1-388). Kind of test: cell-based or functional assay.
Sequence of human somatostatin receptor protein subtype 4 (SSTR4) (P31391 whole entry): as the sequence (P31391 whole entry) above
The target of test [10] is T6, human somatostatin receptor protein …. Kind of test: displacement of 200 pM [125I]-somatostatin from membrane fraction of CHO cells expressing the human receptor; filter binding, Hill plot. On the procedure: as §2, §3

For orientation: IC50 means the concentration that gives 50% inhibition. Low readings indicate greater potency, high ones weaker potency.

T1 sequence (P35346 whole entry): as the sequence (P35346 whole entry) above

As to `C[C@@H](O)[C@@H]1NC(=O)[C@H](CCCCN)NC(=O)[C@H](Cc2c[nH]c3ccccc23)NC(=O)[C@H](Cc2ccccc2)NC(=O)[C@H](Cc2ccccc2)NC(=O)[C@H](CC(N)=O)NC(=O)[C@H](CCCNC(=N)N)NC(=O)[C@@H](N)CSSC[C@@H](C(=O)N[C@@H](CCCCN)C(=O)O)NC(=O)[C@H](CO)NC(=O)[C@H](CO)NC(=O)[C@H](Cc2ccccc2)NC1=O` [hCS-13] (H-CRNFFWKTFSSCK-OH; disulfide 1-12; N-terminus and C-terminus assumed), the 50% inhibitory concentration (IC50) in test [1] and in test [2] was 0.5 nM throughout.
Take CRNFFWKTFSSCK (disulfide 1-12) [deletion type human peptide hCS-13]: the IC50 in test [3] was determined as 0.3 nM; in [4], 6 nM; in test [5], 0.7 nM.
As for MPCRNFFWKTFSSCK (disulfide 3-14) [deletion type human peptide hCS-15], the IC50 in test [3] came to 0.8 nM; in test [5] it was 0.9 nM. In addition, the “ED50 of inhibition of forskolin-stimulated intracellular cAMP accumulation” value is 7 nM in [6], 0.2 nM in [7], 1 nM in test [8] and 0.2 nM in test [9].
For the molecule DRMPCRNFFWKTFSSCK (disulfide 5-16) [human peptide hCS-17], the IC50 in [3] was 0.6 nM; in [10], 0.4 nM; in test [5] it was 0.6 nM. In addition, the “ED50 of inhibition of forskolin-stimulated intracellular cAMP accumulation” value in test [6] came to 5 nM; in test [7], 0.2 nM; in test [8] it was 1 nM; in test [9] it was 0.1 nM.
